In PMC4030845, “DeSUMOylation Controls Insulin Exocytosis in Response to Metabolic Signals” (Biomolecules, 2012):

Target: the molecule itself
Assay: immunoblot of cell lysates after SDS-PAGE (dimer band); INS-1 832/13 cells infected with Ad-SENP1, incubated in KRBH buffer with or without H2O2 (legend: 200 µM; methods: 1 mM) for 30 min at 37 °C; lysed in Cell-Lytic-M with DTT; 8% SDS-PAGE; blot with anti-SENP1 (C12)

B1: SENP1 (sentrin-specific SUMO protease 1) (enzyme, UniProt Q9P0U3 1-644, looked up)
chain: MDDIADRMRMDAGEVTLVNHNSVFKTHLLPQTGFPEDQLSLSDQQILSSRQGHLDRSFTCSTRSAAYNPSYYSDNPSSDSFLGSGDLRTFGQSANGQWRNSTPSSSSSLQKSRNSRSLYLETRKTSSGLSNSFAGKSNHHCHVSAYEKSFPIKPVPSPSWSGSCRRSLLSPKKTQRRHVSTAEETVQEEEREIYRQLLQMVTGKQFTIAKPTTHFPLHLSRCLSSSKNTLKDSLFKNGNSCASQIIGSDTSSSGSASILTNQEQLSHSVYSLSSYTPDVAFGSKDSGTLHHPHHHHSVPHQPDNLAASNTQSEGSDSVILLKVKDSQTPTPSSTFFQAELWIKELTSVYDSRARERLRQIEEQKALALQLQNQRLQEREHSVHDSVELHLRVPLEKEIPVTVVQETQKKGHKLTDSEDEFPEITEEMEKEIKNVFRNGNQDEVLSEAFRLTITRKDIQTLNHLNWLNDEIINFYMNMLMERSKEKGLPSVHAFNTFFFTKLKTAGYQAVKRWTKKVDVFSVDILLVPIHLGVHWCLAVVDFRKKNITYYDSMGGINNEACRILLQYLKQESIDKKRKEFDTNGWQLFSKKSQEIPQQMNGSDCGMFACKYADCITKDRPINFTQQHMPYFRKRMVWEILHRKLL
notes: The adenovirus co-expresses GFP to identify infected cells; also called Ad-SENP1
Question: With B1 as the protein, how does the “stoichiometry N” value read?
Answer: 2
